Substitutions are numbered along the chain they refer to.
T1: his-tagged mouse IL-4R recombinant protein (m-IL-4R-his) (mouse, UniProt P16382 26-233)
T1 construct: range 26-233; also called Murine IL-4R-his; not shown: his tag
T1 sequence (looked up): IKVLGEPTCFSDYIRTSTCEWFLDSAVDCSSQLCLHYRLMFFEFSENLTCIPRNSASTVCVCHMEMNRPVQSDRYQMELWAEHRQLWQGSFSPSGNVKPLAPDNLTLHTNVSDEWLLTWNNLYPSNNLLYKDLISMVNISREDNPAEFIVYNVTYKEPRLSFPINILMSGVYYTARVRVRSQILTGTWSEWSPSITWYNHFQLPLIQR

B1: murine monoclonal antibody 7B10 (antibody, V domains shown)
VH: QVQLQQPGTELLKPGASVSLSCKASGYTFTSYWMHWVKQRPGQGLEWIGLIHPNSDTTKFSENFKTRATLTIDKSSSTAYMKLSSLTSEDSAVYYCAKSKIITTIVARHWYFDVWGTGTTVTVSS
VL: DIVLTQSPPSLAVSLGQRATISCKASQSVDYGGDSYMNWYQQKLGQPPKVLIYAASNLESGIPARFSGSGSGTDFTLNIHPVEEEDVATYYCQHSNENPPTFGGGTKLEIK
notes: also called hybridoma 7B10
B2: murine monoclonal antibody 25G7 (antibody, V domains shown)
VH: EVQLVESGGGLVKPGGSLKLSCAASGFTFSDYGMHWVRQAPEKGLEWVAFISSGSSIIYYADIVKGRSTISRDNAKNTLFLQMTSLRSEDTAMYYCTRGNKRGFFDYWGQGTILTVSS
VL: QIVLTQSPALMSASPGEKVTMTCNASSSVSYMYWYQRKPRSSPKPWIYLTSNLASGVPVRFSGSGSGTSYSLTISSMEAEDAATYYCQQWRSNPPMLTFGSGTKLEVK
notes: also called hybridoma 25G7
B3: Dupilumab (antibody, V domains shown)
VH: EVQLVESGGGLEQPGGSLRLSCAGSGFTFRDYAMTWVRQAPGKGLEWVSSISGSGGNTYYADSVKGRFTISRDNSKNTLYLQMNSLRAEDTAVYYCAKDRLSITIRPRYYGLDVWGQGTTVTVSS
VL: DIVMTQSPLSLPVTPGEPASISCRSSQSLLYSIGYNYLDWYLQKSGQSPQLLIYLGSNRASGVPDRFSGSGSGTDFTLKISRVEAEDVGFYYCMQALQTPYTFGQGTKLEIKR
B4: human-murine chimeric antibody 7B10-C (antibody, V domains shown)
VH: B1 VH
VL: B1 VL
notes: Expressed in HEK293 cells
B5: human-murine chimeric antibody 25G7-C (antibody, V domains shown)
VH: B2 VH
VL: B2 VL
notes: Expressed in HEK293 cells
B6: humanized antibody hu7B10 (antibody, human IgG1, kappa, V domains shown)
VH: EVQLVQSGAEVKKPGASVKVSCKASGYTFTSYWMHWVRQAPGQGLEWMGLIHPNSDTTKFSENFKTRVTMTIDTSISTAYMELSRLRSDDTAVYYCAKSKIITTIVARHWYFDVWGQGTTVTVSS
VL: DIVLTQTPLSLSVTPGQPASISCKASQSVDYGGDSYMNWYLQKPGQPPQLLIYAASNLESGVPDRFSGSGSGTDFTLKISRVEAEDVGVYYCQHSNENPPTFGGGTKVEIKR
notes: Uses the VH-b heavy chain and the VL-b light chain
B7: humanized antibody hu25G7 (antibody, human IgG4 S228P, kappa, V domains shown)
VH: B2 VH with K13Q, K19R, E42G, T78S, F80Y, T84N, S88A, M93V, I113L, L114V
VL: EIVLTQSPATLSLSPGERATLSCNASSSVSYMYWYQQKPGQAPRLLIYLTSNLASGIPARFSGSGSGTDFTLTISSLEPEDFAVYYCQQWRSNPPMLTFGGGTKVEIKR
notes: Uses the VH-c heavy chain and the VL-a light chain; also called wild-type hu25G7
B8: hu25G7-A antibody (antibody, human IgG4 S228P, kappa, V domains shown)
VH: B2 VH with K13Q, K19R, E42G, F80Y, T84N, S88A, M93V, I113L, L114V
VL: B7 VL with N24R, S30P, S92A, N93Y
B9: hu25G7-B antibody (antibody, human IgG4 S228P, kappa, V domains shown)
VH: B2 VH with K13Q, K19R, E42G, F80Y, T84N, S88A, M93V, I113L, L114V
VL: EIVLTQSPATLSLSPGERATLSCRASPGVPPLAWYQQKPGQAPRLLIYLASSRPSGIPARFSGSGSGTDFTLTISSLEPEDFAVYYCQQWRSNPPMLTFGGGTKVEIKR

The binders below were run against T2, human IL-4R on cells (HEK-Blue IL-4 cells, TF-1 cells) (human, UniProt P24394 26-825) (assay: cell-based or functional assay).
For B1, the “IC50 for blocking binding of HEK293-Blue IL-4 cells (to IL-4)” value (shortened to “IC50 for blocking binding”) was 79.8 ng/mL and the “IC50 for inhibiting IL-4-related proliferation of TF-1 cells” value was 418 ng/mL.
B2 was tested, and the “IC50 for blocking binding” value was 0.975 ng/mL and the “IC50 for inhibiting IL-4-related proliferation of TF-1 cells” value was 51.3 ng/mL.
For B3, the “IC50 for blocking binding” value was 5.07 ng/mL and the “IC50 for inhibiting IL-4-related proliferation of TF-1 cells” value was 102 ng/mL.

Target: T2, human IL-4R on cells (HEK-Blue IL-4 …)
Test: cell-based or functional assay
Remark: another data set of the same source
In the case of B4, the “Blocking binding of HEK293-Blue IL-4 cells (to IL-4) (IC50)” value is reported as 9.03 ng/mL and the “Inhibiting IL-4-related proliferation of TF-1 cells (IC50)” value is reported as 46.4 ng/mL.
B5 was tested, and the “Blocking binding of HEK293-Blue IL-4 cells (to IL-4) (IC50)” value was 2.02 ng/mL and the “Inhibiting IL-4-related proliferation of TF-1 cells (IC50)” value was 20.3 ng/mL.
For B3, the “Blocking binding of HEK293-Blue IL-4 cells (to IL-4) (IC50)” value was 3.23 ng/mL and the “Inhibiting IL-4-related proliferation of TF-1 cells (IC50)” value was 207 ng/mL.

Target: T2, human IL-4R on cells (HEK-Blue IL-4 …)
Test: cell-based or functional assay
Remark: another data set of the same source
In the case of B6, the “Blocking binding of HEK293-Blue IL-4 cells (to IL-4) (IC50)” value is reported as 6.87 ng/mL and the “Inhibiting IL-4-related proliferation of TF-1 cells (IC50)” value is reported as 112 ng/mL.
B7 was tested, and the “Blocking binding of HEK293-Blue IL-4 cells (to IL-4) (IC50)” value was 0.943 ng/mL and the “Inhibiting IL-4-related proliferation of TF-1 cells (IC50)” value was 29.6 ng/mL.
For B3, the “Blocking binding of HEK293-Blue IL-4 cells (to IL-4) (IC50)” value was 0.667 ng/mL and the “Inhibiting IL-4-related proliferation of TF-1 cells (IC50)” value was 491 ng/mL.

Target: T2, human IL-4R on cells (HEK-Blue IL-4 …)
Test: cell-based or functional assay
Remark: another data set of the same source
For B8, the “Blocking binding of HEK293-Blue cells (to IL-4) (IC50)” value was 6.49 ng/mL, the “Blocking binding of HEK293-Blue cells (to IL-13) (IC50)” value (shortened to “Blocking binding … (to IL-13) (IC50)”) was 10 ng/mL and the “Inhibiting IL-4-related proliferation of TF-1 cells (IC50)” value was 83.7 ng/mL. For the same binder, the “Inhibiting IL-13-related proliferation of TF-1 cells (IC50)” value (“Inhibiting IL-13-related proliferation” below) was 13.2 ng/mL.
B9 was tested, and the “Blocking binding of HEK293-Blue cells (to IL-4) (IC50)” value was 6.6 ng/mL, the “Blocking binding … (to IL-13) (IC50)” value was 8.38 ng/mL and the “Inhibiting IL-4-related proliferation of TF-1 cells (IC50)” value was 51 ng/mL. For the same binder, the “Inhibiting IL-13-related proliferation” value was 13.7 ng/mL.
With B3 the “Blocking binding of HEK293-Blue cells (to IL-4) (IC50)” value was 12.5 ng/mL, the “Blocking binding … (to IL-13) (IC50)” value was 14.8 ng/mL and the “Inhibiting IL-4-related proliferation of TF-1 cells (IC50)” value was 101 ng/mL. For the same binder, the “Inhibiting IL-13-related proliferation” value was 18.1 ng/mL.

The binders below were run against T3, humanized Fc-tagged human IL-4R recombinant protein (h-IL-4R-Fc) (human, UniProt P24394 26-232) (assay: blocking ELISA of human IL-4/IL-4R).
T3 construct: range 1-232; The printed range starts at Met1, so it includes the signal peptide of the construct; also called Human IL-4R-Fc; not shown: Fc tag
Experimental: (§1) Human IL-4R-Fc protein was coated on a 96-well microplate, 100 μL per well at a concentration of 0.5 μg/mL, and incubated overnight at 4° C. The plate was washed three times with washing buffer at 250 μL per well. A blocking solution was added at 200 μL per well and the plate was incubated at room temperature for 2 h. The plate was washed three times with washing buffer at 250 μL per well. Anti-IL-4R antibody to be tested diluted in diluent was added at 100 μL per well, and the plate was incubated at room temperature for 1 h. The plate was washed three times with washing buffer at 250 μL per well. […] HRP-labeled Neutravidin diluted in a diluent at 1:5000 was added, and the plate was incubated at room temperature for 1 h. The plate was washed three times with washing buffer at 250 μL per well. TMB was added at 100 μL per well, and the mixture was reacted for 15 min in the dark. 0.16 M/L sulfuric acid was added at 50 μL per well.
For B8, the IC50 was 0.144 µg/mL.
B9 gave an IC50 of 0.108 µg/mL.

Each binder was assayed against T1, his-tagged mouse IL-4R recombinant … (assay: ELISA, IL-4R-his coated on the plate).
B1: no binding.
B2: no binding.

Each binder was assayed against T4, his-tagged human IL-4R recombinant protein (h-IL-4R-his) (human, UniProt P24394 26-232) (assay: binding ELISA, human IL-4R-his coated).
T4 construct: range 26-232; Made by Acrobiosystems in HEK293; also called Human IL-4R-his; not shown: his tag
Experimental: ELISA experiment was used to detect binding properties of anti-IL-4R antibodies. A microplate was coated with his-tagged IL-4R recombinant protein. After the antibody was added to each well, the activity of the binding of the antibody to the antigen was detected by adding a secondary antibody (HRP-conjugated anti-primary antibody Fc antibody) and HRP substrate TMB.
Human or rhesus IL-4R-his protein was coated on a 96-well microplate, 100 μL per well at a concentration of 0.5 μg/mL, and incubated overnight at 4° C. The plate was washed three times with washing buffer at 250 μL per well. A blocking solution was added at 200 μL per well and the plate was incubated at room temperature for 2 h. The plate was washed three times with washing buffer at 250 μL per well. Anti-IL-4R antibody to be tested diluted in diluent was added at 100 μL per well. The plate was incubated at room temperature for 1 h. The plate was washed three times with washing buffer at 250 μL per well. HRP-labeled goat anti-human IgG secondary antibody diluted at 1:20000 with diluent was added at 100 μL per well. The plate was incubated at room temperature for 1 h. The plate was washed three times with washing buffer at 250 μL per well. TMB was added at 100 μL per well, and the mixture was reacted for 15 min in the dark. 0.16 M/L sulfuric acid was added at 50 μL per well. The OD value was read at 450 nm by a Thermo MultiSkanFc microplate reader and the binding EC₅₀ value of the anti-IL-4R antibody to IL-4R was calculated.
For B6, the EC50 was 0.012 µg/mL.
B4 showed an EC50 of 0.0118 µg/mL.
B1 was tested, and the EC50 was 0.0458 µg/mL.
In the case of B2, the EC50 is reported as 0.00332 µg/mL.
For B5, the EC50 was 0.00909 µg/mL.
For B7, the EC50 was 0.00341 µg/mL.

Each binder was assayed against T4, his-tagged human IL-4R recombinant … (assay: Biacore SPR: antibody captured, IL-4R antigen in flow, 1:1 model).
Text: Human antibody capture antibody was covalently coupled to a biosensor chip CMS of Biacore instrument (Biacore X100, GE) according to the method described in the instruction of human antibody capture kit (Cat #BR-1008-39, GE), and thus a certain amount of antibodies to be tested were captured based on affinity. Then a series of concentration gradients of IL-4R antigens (the IL-4R antigens all purchased from Acrobiosystems, Cat #ILR-H5221) flowed through the surface of chip, and the Biacore instrument (Biacore X100, GE) was used to detect the reaction signals in real time to obtain the binding and dissociation curves. After each cycle of dissociation was completed, the biochip was washed and regenerated with a regeneration solution prepared in the human antibody capture kit. The amino coupling kit used in the experiment was purchased from GE corporation (Cat #BR-1000-50, GE), and the buffer was HBS-EP+ 10× buffer solution (Cat #BR-1006-69, GE) diluted to 1× (pH 7.4) with D.I. Water.
The data obtained from the experiment were fitted with BiacoreX100 evaluation software 2.0 GE software with a (1:1) binding model to obtain affinity values.
Work on B6 yielded a Kd of 0.284 nM.
With B4 the Kd was 0.278 nM.
For B5, the Kd was 0.725 nM.
B7 gave a Kd of 1.07 nM.

What follows are binders tested against T3, humanized Fc-tagged human IL-4R … (assay: blocking ELISA: human IL-4R-Fc coated, antibody blocks the binding of IL-4).
Experimental: as §1
B6 gave an IC50 of 0.0753 µg/mL.
For B4, the IC50 was 0.162 µg/mL.
Work on B1 yielded an IC50 of 0.0299 µg/mL.
With B2 the IC50 was 0.00813 µg/mL.
B5 was tested, and the IC50 was 0.0397 µg/mL.
B7 showed an IC50 of 0.0236 µg/mL.
